Where no end group is shown, it is not given here.
Columns and labels:
Bub1(1–150) = target: T1, Bub1(1–150) (human, UniProt O43683 1-150); experiment: fluorescence polarisation
T1 sequence (looked up): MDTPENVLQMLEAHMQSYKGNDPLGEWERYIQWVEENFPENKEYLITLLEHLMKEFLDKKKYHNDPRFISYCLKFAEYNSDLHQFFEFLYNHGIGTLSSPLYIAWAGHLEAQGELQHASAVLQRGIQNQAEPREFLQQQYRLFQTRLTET

BubR1(1–204) = BubR1(1–204) (human, UniProt O60566 1-204); experiment: fluorescence polarisation
Chain of BubR1(1–204) (O60566 1-204): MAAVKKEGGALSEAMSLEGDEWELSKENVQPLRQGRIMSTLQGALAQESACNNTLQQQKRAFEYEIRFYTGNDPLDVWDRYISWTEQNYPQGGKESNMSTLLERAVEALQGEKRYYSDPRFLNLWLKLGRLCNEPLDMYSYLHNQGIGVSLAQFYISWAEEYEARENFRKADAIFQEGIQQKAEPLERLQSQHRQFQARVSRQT

STKIDTTSFLANLKLHT (peptide, UniProt Q8NG31-2 174-190, looked up, also: fluorescein (5-FAM) label, position not given here) [Fluorescein (5-FAM)-labeled Knl1(174–190) peptide]
Kd (Bub1(1–150)): ~35 µM

ENKIDFNDFIKRLKTGK (peptide, UniProt Q8NG31-2 210-226, looked up, also: 5-FAM label, position not given here) [5-FAM–labeled synthetic peptide Knl1(210–226)]
Kd (BubR1(1–204)): 0.45 µM
